US20160010082A1

Target: Alexa labeled human IgG
Assay: flow cytometry of E. coli displaying the construct, 300 nM Alexa labeled human IgG; two hour induction; reference CPX display

- fold higher display level than from CPX: 3 fold
Substance: eCPX displaying the mini-Z-domain at the N-terminus
